From doi:10.1101/2023.07.25.550453 (bioRxiv, 2023)
Substitutions are numbered along the chain they refer to. Names may count otherwise. Where two headings read alike, the source gives them in different places.

T1: nuclear cap-binding complex (CBC: CBP80ΔNLS + CBP20), human (human, UniProt Q09161 20-790; P52298 1-156)
T1 sequence 1: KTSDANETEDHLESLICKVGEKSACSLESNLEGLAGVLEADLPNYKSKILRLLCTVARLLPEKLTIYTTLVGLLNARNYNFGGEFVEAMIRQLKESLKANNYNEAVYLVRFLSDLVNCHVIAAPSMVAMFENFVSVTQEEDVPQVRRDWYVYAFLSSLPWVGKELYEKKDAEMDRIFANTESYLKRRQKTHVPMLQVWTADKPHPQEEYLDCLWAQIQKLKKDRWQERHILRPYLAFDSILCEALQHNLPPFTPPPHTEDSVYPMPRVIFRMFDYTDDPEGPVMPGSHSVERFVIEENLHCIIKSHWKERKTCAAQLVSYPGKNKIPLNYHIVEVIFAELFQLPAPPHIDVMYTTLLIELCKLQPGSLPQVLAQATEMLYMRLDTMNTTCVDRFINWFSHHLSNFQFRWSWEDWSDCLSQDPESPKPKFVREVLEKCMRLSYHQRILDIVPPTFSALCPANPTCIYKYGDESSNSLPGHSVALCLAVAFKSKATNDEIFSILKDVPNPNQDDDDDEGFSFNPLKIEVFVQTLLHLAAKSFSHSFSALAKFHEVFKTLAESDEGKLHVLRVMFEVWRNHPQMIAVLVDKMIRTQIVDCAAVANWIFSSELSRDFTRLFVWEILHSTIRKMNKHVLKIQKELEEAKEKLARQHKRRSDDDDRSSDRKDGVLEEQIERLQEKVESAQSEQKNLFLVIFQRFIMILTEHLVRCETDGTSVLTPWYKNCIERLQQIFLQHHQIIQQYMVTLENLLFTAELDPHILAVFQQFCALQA
T1 sequence 2: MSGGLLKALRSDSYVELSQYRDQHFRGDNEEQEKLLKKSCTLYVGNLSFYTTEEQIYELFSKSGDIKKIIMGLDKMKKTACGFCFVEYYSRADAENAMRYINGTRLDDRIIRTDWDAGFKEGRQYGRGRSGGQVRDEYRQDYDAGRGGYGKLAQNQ

T2: CBP80ΔNLS (NCBP1), human (human, UniProt Q09161 20-790)
T2 sequence (looked up): T1 sequence 1

B1: MBP-ZC3H18^117-258 (domain or fragment)
chain: SSVTRELDEHELDYDEEVPEEPAPAVQEDEAEKAGAEDDEEKGEGTPREEGKAGVQSVGEKESLEAAKEKKKEDDDGEIDDGEIDDDDLEEGEVKDPSDRKVRPRPTCRFFMKGNCTWGMNCRFIHPGVNDKGNYSLITKAD
B2: His-MBP-NCBP3^360-620 (domain or fragment, human, UniProt Q53F19 360-620, looked up)
chain: DQDMDADDRVVVEYHEELPALKQPRERSASRRSSASSSDSDEMDYDLELKMISTPSPKKSMKMTMYADEVESQLKNIRNSMRADSVSSSNIKNRIGNKLPPEKFADVRHLLDEKRQHSRPRPPVSSTKSDIRQRLGKRPHSPEKAFSSNPVVRREPSSDVHSRLGVPRQDSKGLYADTREKKSGNLWTRLGSAPKTKEKNTKKVDHRAPGAEEDDSELQRAWGALIKEKEQSRQKKSRLDNLPSLQIEVSRESSSGSEAES
B3: NELF-E^244-380 (domain or fragment, human, UniProt P18615 244-380, looked up)
chain: GPFRRSDSFPERRAPRKGNTLYVYGEDMTPTLLRGAFSPFGNIIDLSMDPPRNCAFVTYEKMESADQAVAELNGTQVESVQLKVNIARKQPMLDAATGKSVWGSLAVQNSPKGCHRDKRTQIVYSDDVYKENLVDGF
B4: NELF-E^244-380 (W345E) (domain or fragment, human, UniProt P18615 244-380, looked up)
chain: B3 chain with W102E
B5: CBP20 (NCBP2), human (natural protein)
chain: T1 sequence 2
B6: His-MBP-PHAX^103-196 (domain or fragment, human, UniProt Q9H814 103-196, looked up)
chain: SQKPPVAGGKKINNIWGAVLQEQNQDAVATELGILGMEGTIDRSRQSETYNYLLAKKLRKESQEHTKDLDKELDEYMHGGKKMGSKEEENGQGH
B7: His-MBP-NCBP3^560-620 (domain or fragment, human, UniProt Q53F19 560-620, looked up)
chain: TKKVDHRAPGAEEDDSELQRAWGALIKEKEQSRQKKSRLDNLPSLQIEVSRESSSGSEAES
B8: NCBP3^560-620 (tag cleaved, cryo-EM sample) (domain or fragment, human, UniProt Q53F19 560-620, looked up)
chain: B7 chain

Columns and labels:
[1] = biological target: ARS2^147-871 (human); test: ITC
[2] = biological target: ZC3H18 double ARM motif peptide, biotinylated (human); test: BLI
[3] = biological target: PHAX^1-18 peptide (ARM 9-EDGQL), biotinylated (human) (UniProt Q9H814); test: BLI
[4] = biological target: ARS2^147-871 (human); test: ITC; remark: listed apart in the source
[5] = biological target: T1, nuclear cap-binding complex (CBC: …); test: pull-down
[6] = biological target: T1, nuclear cap-binding complex (CBC: …); test: ITC
[7] = biological target: T2, CBP80ΔNLS (NCBP1), human; test: cryo-EM structure
[8] = biological target: full-length PHAX (human, UniProt Q9H814 1-394); test: cryo-EM structure
[9] = biological target: T1, nuclear cap-binding complex (CBC: …); test: ITC; remark: listed apart in the source
[10] = biological target: T1, nuclear cap-binding complex (CBC: …); test: SPR
[11] = biological target: T1, nuclear cap-binding complex (CBC: …); test: ITC; remark: listed apart in the source
[12] = biological target: B5; test: cryo-EM structure
[13] = biological target: CBP80 (delta NLS);CBP20;PHAX (human;human;human, UniProt Q09161;P52298;Q9H814 20-790;1-156;1-394, del1-19||); test: cryo-EM
CBP80 (delta NLS);CBP20;PHAX, sequence (Q9H814 whole entry, stated change not applied, one chain of several): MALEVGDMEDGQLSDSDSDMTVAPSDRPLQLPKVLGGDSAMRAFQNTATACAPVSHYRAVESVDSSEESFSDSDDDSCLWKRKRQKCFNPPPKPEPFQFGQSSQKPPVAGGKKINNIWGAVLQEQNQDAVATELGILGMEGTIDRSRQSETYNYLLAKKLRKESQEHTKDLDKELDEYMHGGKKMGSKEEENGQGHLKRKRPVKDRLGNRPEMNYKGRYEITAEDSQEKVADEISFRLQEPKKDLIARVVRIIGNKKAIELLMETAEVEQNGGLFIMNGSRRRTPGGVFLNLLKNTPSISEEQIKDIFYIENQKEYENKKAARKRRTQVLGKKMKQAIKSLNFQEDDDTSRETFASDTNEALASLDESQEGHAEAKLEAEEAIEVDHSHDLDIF

full-length PHAX (human, UniProt Q9H814 1-394), sequence (Q9H814 whole entry): as the sequence (Q9H814 whole entry, stated change not applied, one chain of several) above

full-length PHAX (from UniProt Q9H814 1-394) (natural protein)
Kd [1]: 4100 nM

ARS2^147-871 (domain or fragment)
Kd [2]: 7700 nM
Kd [3]: 6100 nM

KESLEAAKEKKKEDDDGEIDDGEIDDDDLEEGEVKDPSD (domain or fragment) [MBP-ZC3H18^177-215]
Kd [4]: 3500 nM

B1
Kd [4]: 700 nM

B2
binding result [5]: binds

TKKVDHRAPGAEEDDSELQRAWGALIKEKEQ (domain or fragment, human, UniProt Q53F19 560-590, looked up) [NCBP3^560-620 truncated to residue 590]
Kd [6]: 6000 nM

B3
Kd [6]: 113 nM

B4
Kd [6]: 1300 nM

B5
binding result [7]: binds
binding result [8]: binds

B6
Kd [9]: 2400 nM

ESAWERGLRHAKEVLKKATIRKEQEPDFEEKRFTVTIGEDER (domain or fragment, human, UniProt Q86VM9 298-339, looked up) [His-MBP-ZC3H18^298-339]
Kd [10]: 150 nM

B7
Kd [9]: ~115 nM
Kd [11]: ~173 nM

B8
binding result [12]: binds

TKKVDHRAPGAEEDDSELQRAWGALIKEKEQSRQKKSR (domain or fragment, human, UniProt Q53F19 560-597, looked up) [NCBP3^560-620 with C-terminal residues 598-620 removed]
Kd [6]: 222 nM

AAUCUAUAAUAG (ssRNA, 5' m7Gppp cap) [capped 12-mer RNA (m7Gppp-AAUCUAUAAUAG)]
binding result [13]: binds
